Data: US10801046B2, “Methods and materials for biosynthesizing multifunctional, multivariate molecules via carbon chain modification” (INVISTA NORTH AMERICA S.A.R.L., priority 2016, dated 2020)

B1: SEQ ID NO: 29: Mycobacterium smegmatis carboxylate reductase (protein)
chain: MTSDVHDATDGVTETALDDEQSTRRIAELYATDPEFAAAAPLPAVVDAAHKPGLRLAEILQTLFTGYGDRPALGYRARELATDEGGRTVTRLLPRFDTLTYAQVWSRVQAVAAALRHNFAQPIYPGDAVATIGFASPDYLTLDLVCAYLGLVSVPLQHNAPVSRLAPILAEVEPRILTVSAEYLDLAVESVRDVNSVSQLVVFDHHPEVDDHRDALARAREQLAGKGIAVTTLDAIADEGAGLPAEPIYTADHDQRLAMILYTSGSTGAPKGAMYTEAMVARLWTMSFITGDPTPVINVNFMPLNHLGGRIPISTAVQNGGTSYFVPESDMSTLFEDLALVRPTELGLVPRVADMLYQHHLATVDRLVTQGADELTAEKQAGAELREQVLGGRVITGFVSTAPLAAEMRAFLDITLGAHIVDGYGLTETGAVTRDGVIVRPPVIDYKLIDVPELGYFSTDKPYPRGELLVRSQTLTPGYYKRPEVTASVFDRDGYYHTGDVMAETAPDHLVYVDRRNNVLKLAQGEFVAVANLEAVFSGAALVRQIFVYGNSERSFLLAVVVPTPEALEQYDPAALKAALADSLQRTARDAELQSYEVPADFIVETEPFSAANGLLSGVGKLLRPNLKDRYGQRLEQMYADIAATQANQLRELRRAAATQPVIDTLTQAAATILGTGSEVASDAHFTDLGGDSLSALTLSNLLSDFFGFEVPVGTIVNPATNLAQLAQHIEAQRTAGDRRPSFTTVHGADATEIRASELTLDKFIDAETLRAAPGLPKVTTEPRTVLLSGANGWLGRFLTLQWLERLAPVGGTLITIVRGRDDAAARARLTQAYDTDPELSRRFAELADRHLRVVAGDIGDPNLGLTPEIWHRLAAEVDLVVHPAALVNHVLPYRQLFGPNVVGTAEVIKLALTERIKPVTYLSTVSVAMGIPDFEEDGDIRTVSPVRPLDGGYANGYGNSKWAGEVLLREAHDLCGLPVATFRSDMILAHPRYRGQVNVPDMFTRLLLSLLITGVAPRSFYIGDGERPRAHYPGLTVDFVAEAVTTLGAQQREGYVSYDVMNPHDDGISLDVFVDWLIRAGHPIDRVDDYDDWVRRFETALTALPEKRRAQTVLPLLHAFRAPQAPLRGAPEPTEVFHAAVRTAKVGPGDIPHLDEALIDKYIRDLREFGLI
modifications: Mycobacterium smegmatis (strain ATCC 700084 / mc(2)155)
notes: Mycobacterium smegmatis carboxylate reductase
B2: SEQ ID NO: 37: Mycobacterium massiliense carboxylate reductase (protein)
chain: MTNETNPQQEQLSRRIESLRESDPQFRAAQPDPAVAEQVLRPGLHLSEAIAALMTGYAERPALGERARELVIDQDGRTTLRLLPRFDTTTYGELWSRTTSVAAAWHHDATHPVKAGDLVATLGFTSIDYTVLDLAIMILGGVAVPLQTSAPASQWTTILAEAEPNTLAVSIELIGAAMESVRATPSIKQVVVFDYTPEVDDQREAFEAASTQLAGTGIALETLDAVIARGAALPAAPLYAPSAGDDPLALLIYTSGSTGAPKGAMHSENIVRRWWIREDVMAGTENLPMIGLNFMPMSHIMGRGTLTSTLSTGGTGYFAASSDMSTLFEDMELIRPTALALVPRVCDMVFQRFQTEVDRRLASGDTASAEAVAAEVKADIRDNLFGGRVSAVMVGSAPLSEELGEFIESCFELNLTDGYGSTEAGMVFRDGIVQRPPVIDYKLVDVPELGYFSTDKPHPRGELLLKTDGMFLGYYKRPEVTASVFDADGFYMTGDIVAELAHDNIEIIDRRNNVLKLSQGEFVAVATLEAEYANSPVVHQIYVYGSSERSYLLAVVVPTPEAVAAAKGDAAALKTTIADSLQDIAKEIQLQSYEVPRDFIIEPQPFTQGNGLLTGIAKLARPNLKAHYGPRLEQMYAEIAEQQAAELRALHGVDPDKPALETVLKAAQALLGVSSAELAADAHFTDLGGDSLSALSFSDLLRDIFAVEVPVGVIVSAANDLGGVAKFVDEQRHSGGTRPTAETVHGAGHTEIRAADLTLDKFIDEATLHAAPSLPKAAGIPHTVLLTGSNGYLGHYLALEWLERLDKTDGKLIVIVRGKNAEAAYGRLEEAFDTGDTELLAHFRSLADKHLEVLAGDIGDPNLGLDADTWQRLADTVDVIVHPAALVNHVLPYNQLFGPNVVGTAEIIKLAITTKIKPVTYLSTVAVAAYVDPTTFDEESDIRLISAVRPIDDGYANGYGNAKWAGEVLLREAHDLCGLPVAVFRSDMILAHSRYTGQLNVPDQFTRLILSLIATGIAPGSFYQAQTTGERPLAHYDGLPGDFTAEAITTLGTQVPEGSEGFVTYDCVNPHADGISLDNFVDWLIEAGYPIARIDNYTEWFTRFDTAIRGLSEKQKQHSLLPLLHAFEQPSAAENHGVVPAKRFQHAVQAAGIGPVGQDGTTDIPHLSRRLIVKYAKDLEQLGLL
modifications: Mycobacterium abscessus subsp. bolletii 2B-0307
notes: Mycobacterium massiliense carboxylate reductase

Tests used:
[1] = Carboxylate reductase activity, 7-hydroxyheptanoate to 7-hydroxyheptanal, NADPH consumption at 340 nm; format: biochemical; conditions: enhanced by gene product of sfp, 20 min, against empty vector control, FIG. 44
Description: A sequence encoding a His-tag was added to the genes from Mycobacterium marinum, Mycobacterium smegmatis, Segniliparus rugosus, Mycobacterium smegmatis, Mycobacterium massiliense, and Segniliparus rotundus that encode the carboxylate reductases of SEQ ID NOs: 25 (GenBank Accession No. ACC40567.1), 27 (GenBank Accession No. ABK75684.1), 29 (GenBank Accession No. ABK71854.1), 31 (GenBank Accession No. EFV11917.1), 37 (GenBank Accession No. EIV11143.1), and 38 (GenBank Accession No. ADG98140.1) such that N-terminal HIS tagged carboxylate reductases could be produced. Each of the modified genes was cloned into a pET Duet expression vector alongside a sfp gene encoding a His-tagged phosphopantetheine transferase from Bacillus subtilis, both under control of the T7 promoter.
Each expression vector was transformed into a BL21[DE3] E. coli host and the resulting recombinant E. coli strains were cultivated at 37° C. in a 250 mL shake flask culture containing 50 mL LB media and antibiotic selection pressure, with shaking at 230 rpm. Each culture was induced overnight at 37° C. using an auto-induction media.
The pellet from each induced shake flask culture was harvested via centrifugation. Each pellet was resuspended and lysed via sonication. The cell debris was separated from the supernatant via centrifugation. The carboxylate reductases and phosphopantetheine transferase were purified from the supernatant using Ni-affinity chromatography, diluted 10-fold into 50 mM HEPES buffer (pH=7.5) and concentrated via ultrafiltration.
Enzyme activity (i.e., 7-hydroxyheptanoate to 7-hydroxyheptanal) assays were performed in triplicate in a buffer composed of a final concentration of 50 mM HEPES buffer (pH=7.5), 2 mM […], 10 mM MgCl2, 1 mM ATP, and 1 mM NADPH. Each enzyme activity assay reaction was initiated by adding purified carboxylate reductase and phosphopantetheine transferase or the empty vector control to the assay buffer containing the 7-hydroxyheptanoate and then incubated at room temperature for 20 min. The consumption of NADPH was monitored by absorbance at 340 nm.

[2] = Carboxylate reductase activity, N7-acetyl-7-aminoheptanoate to N7-acetyl-7-aminoheptanal, NADPH consumption at 340 nm; format: biochemical; conditions: enhanced by gene product of sfp, 2 mM substrate, 20 min, against empty vector control, FIG. 45
Description: The activity of each of the N-terminal His-tagged carboxylate reductases of SEQ ID NOs: 29 (GenBank Accession No. ABK71854.1), 37 (Genbank Accession No. EIV11143.1), and 38 (GenBank Accession No. ADG98140.1) (see Examples 4) for converting N7-acetyl-7-aminoheptanoate to N7-acetyl-7-aminoheptanal was assayed in triplicate in a buffer composed of a final concentration of 50 mM HEPES buffer (pH=7.5), 2 mM N7-acetyl-7-aminoheptanoate, 10 mM MgCl2, 1 mM ATP, and 1 mM NADPH. The assays were initiated by adding purified carboxylate reductase and phosphopantetheine transferase or the empty vector control to the assay buffer containing the N7-acetyl-7-aminoheptanoate then incubated at room temperature for 20 min. The consumption of NADPH was monitored by absorbance at 340 nm.

Molecule | acceptance of 7-hydroxyheptanoate as substrate, forming 7-hydroxyheptanal [1] | acceptance of N7-acetyl-7-aminoheptanoate as substrate, forming N7-acetyl-7-aminoheptanal [2]
B1 | accepted 7-hydroxyheptanoate as substrate | accepted N7-acetyl-7-aminoheptanoate as substrate
B2 | accepted 7-hydroxyheptanoate as substrate | accepted N7-acetyl-7-aminoheptanoate as substrate
